Here are results for one molecule from article PMC3861084 (Molecular Biology of the Cell, 2013).

The experiment deals with T1, pY14–Cav-1–mRFP (Cav-1–monomeric red fluorescent protein phosphorylated at Tyr-14) (canine, UniProt P33724 1-178, phosphotyrosine at 14).
T1 sequence (looked up): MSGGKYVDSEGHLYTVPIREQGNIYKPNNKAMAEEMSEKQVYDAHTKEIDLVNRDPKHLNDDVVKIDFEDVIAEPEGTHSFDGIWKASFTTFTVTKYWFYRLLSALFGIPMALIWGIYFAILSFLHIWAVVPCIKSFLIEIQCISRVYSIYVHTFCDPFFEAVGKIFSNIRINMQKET
Kind of experiment: far-Western.

B1: GST fused to the Src SH2 domain (domain or fragment, chicken, UniProt P00523 148-251, looked up)
chain: WYFGKITRRESERLLLNPENPRGTFLVRESETTKGAYCLSVSDFDNAKGLNVKHYKIRKLDSGGFYITSRTQFSSLQQLVAYYSKHADGLCHRLTNVCPTSKPQ
In the case of B1, the binding result is “binds”.
